In the experiment the target is T1, Recombinant human IL-17A (Peprotech, cat #AF-200-17) (human, UniProt Q16552 24-155).
T1 construct: Bought protein
The experiment in a line: SPR (BIAcore T200), IL-17A coupled to CM5 chip, VH as analyte, single-cycle kinetics. (In general: SPR reads the build-up and loss of mass on a sensor chip optically.)

The values below come from US20240199731A1 (published 2024).

T1 sequence (Q16552 24-155): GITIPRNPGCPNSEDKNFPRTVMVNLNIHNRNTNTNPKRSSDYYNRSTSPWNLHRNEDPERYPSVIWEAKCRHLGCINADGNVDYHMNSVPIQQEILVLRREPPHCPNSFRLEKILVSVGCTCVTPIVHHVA
Procedure: VH binding kinetics were then determined from the (blank subtracted) sensorgram traces using 1:1 binding models and BIAevaluation software.

B1: Clone 1.17 (VHH)
VHH: EVQLVESGGGLVQPGGSLRLSCAASGFTFSSYSMYWVRQAPGKGLEWVAEIKPTGSVQYYVSDVKGRFTISRDNAKNSLYLQMNSLRAEDTAVYYCAKGEILPLYFDYWGQGTLVTVSS
notes: Human single VH domain; also called VH 1.17.1
A word on the Kd: it is the free concentration of one partner at which half of the binding sites on the other are occupied at equilibrium, for simple one-to-one binding. In the case of B1, the Kd turned out to be 1.5 nM.
